Substrate in the series: CC(=O)NC1C(Oc2ccc(NC(=O)CCN(CCCCNC(=O)c3ccccc3)C(=O)OC(C)(C)C)cc2)OC(COS(=O)(=O)O)C(O)C1O
Nature of the series: Enzyme kinetics of HexA with the HexA substrate, endogenous enzyme from healthy adult dried blood spots, LC-MS/MS detection. The class given is biochemical. To be noted: other: endogenous enzyme from healthy adult dried blood spots. On the procedure:
3.2 mm punches were taken from dried blood samples. The punches were added into a well of a multiwell plate and in particular, a 1.0 mL deep-well 96-well plate. Following, 30 μL of the duplex assay cocktail described above was added to each well. The plate was sealed with a silicone sealing mat and shaken at 250 rpm for 4 hours at 37° C. in an orbital shaker incubator. After incubation, the enzymatic reaction was quenched by adding 100 μL of methanol: ethyl acetate (1:1) and mixed by pipetting up and down ˜10 times. Analytes were extracted by adding sodium chloride solution (0.5 M, 200 μL) and ethyl acetate (400 μL) to each well and mixed by pipetting up and down ˜10 times. […]
Analytes were detected via a WATERS™ Xevo TQ triple-quadrupole mass spectrometer. […] The following MRM traces were monitored for quantitation: HexA enzymatic reaction product (456.5>356.1), HexA/B enzymatic reaction product (461.5>361.2), and internal standard (465.5>357.1). […]
Enzyme kinetics of HexA and HexA/B were measured in relationship to the HexA substrate and HexA/B substrate, respectively, using endogenous enzymes from healthy adult dried blood spots. […]
The reaction rate for each substrate at different substrate concentrations was measured and the relationship found to be hyperbolic.

B1: HexA (Homo sapiens) (protein)
chain: TLEKNVLVVSVVTPGCNQLPTLESVENYTLTINDDQCLLLSETVWGALRGLETFSQLVWKSAEGTFFINKTEIEDFPRFPHRGLLLDTSRHYLPLSSILDTLDVMAYNKLNVFHWHLVDDPSFPYESFTFPELMRKGSYNPVTHIYTAQDVKEVIEYARLRGIRVLAEFDTPGHTLSWGPGIPGLLTPCYSGSEPSGTFGPVNPSLNNTYEFMSTFFLEVSSVFPDFYLHLGGDEVDFTCWKSNPEIQDFMRKKGFGEDFKQLESFYIQTLLDIVSSYGKGYVVWQEVFDNKVKIQPDTIIQVWREDIPVNYMKELELVTKAGFRALLSAPWYLNRISYGPDWKDFYIVEPLAFEGTPEQKALVIGGEACMWGEYVDNTNLVPRLWPRAGAVAERLWSNKLTSDLTFAYERLSHFRCELLRRGVQAQPLNVGFCEQEFEQT
notes: using endogenous enzymes from healthy adult dried blood spots; from tissue; host or cells: dried blood spots from healthy adults/individuals (3.2 mm punches)
Consider B1, for which the Km was 4,051 μM.

The values above are taken from US20250250608A1, “METHODS AND COMPOSITIONS FOR ASSAYING BETA-HEXOSAMINIDASE ENZYMATIC ACTIVITY VIA MASS SPECTROMETRY” (GelbChem, LLC, priority 2024, published 2025).
